Results reported in patent publication US20080187528A1 (FUNCTIONAL GENETICS, published 2008).

Legend:
[1] = target: biotinylated peptide Bio-… containing 11 amino acid residues from the N terminus of the Ebola VP40 (Ebola virus (EBOV))
[2] = target: T1, truncated (31-326) Ebola VP40 (Ebola virus (EBOV), UniProt Q05128 31-326); assay: Far Western
T1 sequence: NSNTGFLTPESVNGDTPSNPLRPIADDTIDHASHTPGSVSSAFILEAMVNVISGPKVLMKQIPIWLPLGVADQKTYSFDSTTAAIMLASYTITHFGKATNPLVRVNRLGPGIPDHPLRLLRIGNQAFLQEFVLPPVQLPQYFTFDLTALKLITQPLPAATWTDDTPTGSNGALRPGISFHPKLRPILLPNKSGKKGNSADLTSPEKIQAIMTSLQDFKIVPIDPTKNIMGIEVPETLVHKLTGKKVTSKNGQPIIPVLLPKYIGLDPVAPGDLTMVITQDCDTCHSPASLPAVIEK

B1: purified TSG101 protein that contains only the UEV domain (other)
chain: AVSESQLKKMVSKYKYRDLTVRETVNVITLYKDLKPVLDSYVFNDGSSRELMNLTGTIPVPYRGNTYNIPICLWLLDTYPYNPPICFVKPTSSMTIKTGKHVDANGKIYLPYLHEWKHPQSDLLGLIQVMIVVFGDEPPVFSRP
B1 was tested, and the Kd [1] was 2000 nM and the binding result [2] was “no binding”.
